Tests used:
Format in all cases: biochemical
Chymotrypsin = assay: Protease inhibitory activity assay, chymotrypsin; conditions: 1 μM inhibitor; chymotrypsin 2.5 nM; MeO-Suc-Arg-Pro-Tyr-pNA 0.6 mM; 25° C.
Protocol: MeO--Suc--Arg--Pro--Tyr--pNA
(§1) Inhibition assays were performed in microtiter wells in a total volume of 300 μl in 10 mM NaCl, 50 mM Tris-HCl (pH 7.4), 0.01% TWEEN80 (Polyoxyethylenesorbitan monoleate). The reactions were incubated at 25° C. for ten minutes after which the appropriate chromogenic substrate was added to the final concentration listed in Table 2 and the final reaction was incubated for thirty minutes at 25° C. Amidolytic activity was measured at 405 nm or by fluorescence Em at 460 nm.

rec. human Factor VIIa = target: T1, rec. human Factor VIIa (Homo sapiens, UniProt P08709); assay: Protease inhibitory activity assay, Factor VIIa; conditions: 1 μM inhibitor; Factor VIIa 300 nM; H-D-Ile-Pro-Arg-pNA 0.6 mM; 25° C.
T1 construct: rec. human Factor VIIa; purchased Novo Nordisk A/S
T1 sequence (P08709 61-212 limits assumed): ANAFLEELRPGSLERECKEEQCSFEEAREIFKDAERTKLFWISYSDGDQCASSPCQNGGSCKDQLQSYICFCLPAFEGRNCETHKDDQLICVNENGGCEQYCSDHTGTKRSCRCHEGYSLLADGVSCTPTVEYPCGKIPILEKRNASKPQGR
T1 sequence (P08709 213-466 limits assumed): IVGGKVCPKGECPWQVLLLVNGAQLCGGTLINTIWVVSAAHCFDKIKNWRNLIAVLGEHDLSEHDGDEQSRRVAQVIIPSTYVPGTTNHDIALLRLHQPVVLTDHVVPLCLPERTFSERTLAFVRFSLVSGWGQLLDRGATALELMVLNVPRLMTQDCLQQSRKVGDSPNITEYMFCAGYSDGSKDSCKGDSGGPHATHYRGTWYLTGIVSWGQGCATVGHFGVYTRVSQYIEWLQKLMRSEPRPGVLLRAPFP
Protocol: H--D--Ile--Pro--Arg--pNA
as §1

Plasmin = target: T2, Plasmin (Homo sapiens, UniProt P00747); assay: Protease inhibitory activity assay, plasmin; conditions: 1 μM inhibitor; plasmin 10 nM; H-D-Val-Leu-Lys-pNA 0.6 mM; 25° C.
T2 construct: Plasmin (10 nM); purchased Kabi
T2 sequence (P00747 97-580 limits assumed): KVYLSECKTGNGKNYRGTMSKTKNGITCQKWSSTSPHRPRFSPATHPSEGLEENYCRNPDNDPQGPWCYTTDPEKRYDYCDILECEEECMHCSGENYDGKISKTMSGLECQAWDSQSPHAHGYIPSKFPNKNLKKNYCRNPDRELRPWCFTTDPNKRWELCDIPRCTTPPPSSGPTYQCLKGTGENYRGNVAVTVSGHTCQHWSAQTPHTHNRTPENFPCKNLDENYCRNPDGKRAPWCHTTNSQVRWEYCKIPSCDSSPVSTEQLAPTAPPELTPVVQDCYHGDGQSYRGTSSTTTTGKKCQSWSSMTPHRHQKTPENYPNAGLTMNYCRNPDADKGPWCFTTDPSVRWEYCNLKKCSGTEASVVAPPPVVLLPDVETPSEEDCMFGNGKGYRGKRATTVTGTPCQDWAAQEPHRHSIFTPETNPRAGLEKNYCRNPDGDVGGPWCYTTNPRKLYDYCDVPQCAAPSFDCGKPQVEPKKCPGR
T2 sequence (P00747 581-810 limits assumed): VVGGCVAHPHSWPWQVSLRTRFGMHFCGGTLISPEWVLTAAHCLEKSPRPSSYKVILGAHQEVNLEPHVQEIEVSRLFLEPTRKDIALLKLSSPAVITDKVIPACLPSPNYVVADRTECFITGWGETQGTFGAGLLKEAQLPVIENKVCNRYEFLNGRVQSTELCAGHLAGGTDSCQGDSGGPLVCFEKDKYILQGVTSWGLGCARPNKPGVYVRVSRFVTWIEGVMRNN
Protocol: H--D--Val--Leu--Lys--pNA
as §1

Cathepsin G = target: T3, Cathepsin G (Homo sapiens, UniProt P08311); assay: Protease inhibitory activity assay, cathepsin G; conditions: 1 μM inhibitor; Suc-Ala-Ala-Pro-Phe-pNA 0.6 mM; 25° C.
T3 construct: purified at Novo Nordisk A/S; tissue Novo Nordisk A/S (purified there); host or cells: leukocytes (by the cited method)
T3 sequence (P08311 21-255): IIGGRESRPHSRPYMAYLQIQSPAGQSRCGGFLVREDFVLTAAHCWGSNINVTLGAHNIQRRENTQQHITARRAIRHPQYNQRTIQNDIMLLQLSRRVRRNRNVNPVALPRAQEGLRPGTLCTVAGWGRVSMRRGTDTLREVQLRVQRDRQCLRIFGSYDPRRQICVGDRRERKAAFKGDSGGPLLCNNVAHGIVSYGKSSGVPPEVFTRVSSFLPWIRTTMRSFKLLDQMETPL
Protocol: Cathepsin G Suc--Ala--Ala--Pro--Phe--pNA
(§2) purified at Novo Nordisk A/S
(0.6 mM) (SEQ ID NO: 19)
as §1

human Factor XIIa = target: T4, human Factor XIIa (Homo sapiens, UniProt P00748); assay: Protease inhibitory activity assay, Factor XIIa; conditions: 1 μM inhibitor; Factor XIIa 30 nM; H-D-Pro-Phe-Arg-pNA 0.6 mM; 25° C.
T4 construct: human Factor XIIa (30 nM); purchased Dr. Walt Kisiel, University of New Mexico, Albuquerque, NM
T4 sequence (P00748 20-372 limits assumed): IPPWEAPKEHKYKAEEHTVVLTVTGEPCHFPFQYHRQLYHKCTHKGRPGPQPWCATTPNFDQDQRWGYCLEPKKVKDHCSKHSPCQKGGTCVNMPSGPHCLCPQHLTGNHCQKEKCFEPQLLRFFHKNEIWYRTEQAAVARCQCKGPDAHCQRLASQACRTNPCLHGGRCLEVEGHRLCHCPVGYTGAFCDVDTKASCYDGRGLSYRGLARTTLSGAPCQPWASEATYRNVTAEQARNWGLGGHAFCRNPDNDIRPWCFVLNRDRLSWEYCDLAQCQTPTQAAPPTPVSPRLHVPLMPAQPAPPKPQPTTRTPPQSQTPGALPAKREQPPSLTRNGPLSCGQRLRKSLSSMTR
T4 sequence (P00748 373-615 limits assumed): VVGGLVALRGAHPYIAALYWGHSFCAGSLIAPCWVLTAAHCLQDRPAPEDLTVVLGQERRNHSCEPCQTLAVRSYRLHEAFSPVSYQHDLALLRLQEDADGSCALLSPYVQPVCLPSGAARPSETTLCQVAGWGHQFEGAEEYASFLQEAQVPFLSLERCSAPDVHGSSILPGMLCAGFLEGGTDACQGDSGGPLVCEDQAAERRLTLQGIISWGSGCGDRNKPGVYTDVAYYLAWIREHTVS
Protocol: human Factor XIIa (30 nM)
(§3) H--D--Pro--Phe--Arg--pNA
as §1

human Factor Xa = target: T5, human Factor Xa (Homo sapiens, UniProt P00742); assay: Protease inhibitory activity assay, Factor Xa; conditions: 1 μM inhibitor; Factor Xa 3 nM; MeO-CO-CHA-Gly-Arg-pNA 0.3 mM; 25° C.
T5 construct: human Factor Xa (3 nM); purchased Dr. I. Schousboe, Copenhagen, Denmark
T5 sequence (P00742 41-179 limits assumed): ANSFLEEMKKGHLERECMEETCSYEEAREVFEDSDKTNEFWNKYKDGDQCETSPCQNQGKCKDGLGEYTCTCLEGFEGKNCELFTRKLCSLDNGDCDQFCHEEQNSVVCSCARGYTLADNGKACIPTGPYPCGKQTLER
T5 sequence (P00742 235-488 limits assumed): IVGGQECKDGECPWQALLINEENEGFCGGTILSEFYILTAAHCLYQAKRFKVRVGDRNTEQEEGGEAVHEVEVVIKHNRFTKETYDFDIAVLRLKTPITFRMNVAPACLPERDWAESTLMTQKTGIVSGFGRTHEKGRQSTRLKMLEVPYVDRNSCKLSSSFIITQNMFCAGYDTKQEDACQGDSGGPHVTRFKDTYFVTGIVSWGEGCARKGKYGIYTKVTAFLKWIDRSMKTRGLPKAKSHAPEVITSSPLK
Protocol: The reactions were incubated at 25° C. for ten minutes after which the appropriate chromogenic substrate was added to the final concentration listed in Table 2 and the final reaction was incubated for thirty minutes at 25° C. Amidolytic activity was measured at 405 nm or by fluorescence Em at 460 nm.

human Factor XIa = target: T6, human Factor XIa (Homo sapiens, UniProt P03951); assay: Protease inhibitory activity assay, Factor XIa; conditions: 1 μM inhibitor; Factor XIa 1 nM; Boc-Glu(OBzl)-Ala-Arg-MCA 0.12 mM; 25° C.
T6 construct: human Factor XIa (1 nM); purchased Dr. Kazuo Fujikawa, University of Washington, Seattle, WA
T6 sequence (P03951 19-387 limits assumed): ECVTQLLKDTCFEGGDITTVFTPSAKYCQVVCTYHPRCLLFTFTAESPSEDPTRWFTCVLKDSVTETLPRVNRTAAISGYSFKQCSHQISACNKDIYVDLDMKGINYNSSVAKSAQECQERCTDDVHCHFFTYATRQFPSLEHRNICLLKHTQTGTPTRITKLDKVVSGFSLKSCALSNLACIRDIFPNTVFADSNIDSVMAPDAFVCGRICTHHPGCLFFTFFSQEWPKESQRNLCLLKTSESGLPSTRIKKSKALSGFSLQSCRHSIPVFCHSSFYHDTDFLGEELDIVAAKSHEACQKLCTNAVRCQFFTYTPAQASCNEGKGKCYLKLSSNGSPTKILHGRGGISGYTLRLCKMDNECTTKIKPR
T6 sequence (P03951 388-625 limits assumed): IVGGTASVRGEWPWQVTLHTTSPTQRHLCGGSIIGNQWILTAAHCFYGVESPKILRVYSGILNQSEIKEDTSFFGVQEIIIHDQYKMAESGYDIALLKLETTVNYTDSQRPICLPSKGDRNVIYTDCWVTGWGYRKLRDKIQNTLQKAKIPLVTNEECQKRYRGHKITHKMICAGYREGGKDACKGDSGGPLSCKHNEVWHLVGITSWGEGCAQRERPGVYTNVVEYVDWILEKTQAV
Protocol: Boc--Glu(OBzl)--Ala--Arg--MCA
as §1

Trypsin = assay: Protease inhibitory activity assay, trypsin; conditions: 1 μM inhibitor; trypsin 8 nM; H-D-Val-Leu-Lys-pNA 0.6 mM; 25° C.
Protocol: Trypsin (8 nM) H--D--Val--Leu--Lys--pNA
as §1

[1] = system: GL Kallikrein (glandular kallikrein); assay: Protease inhibitory activity assay, glandular kallikrein; conditions: 1 μM inhibitor; GL kallikrein 1 U/ml; H-D-Val-Leu-Arg-pNA 0.6 mM; 25° C.
Protocol: H--D--Val--Leu--Arg--pNA
(§4) Abbreviations in Table 2: rec. refers to recombinant, GL kallikrein refer
(§5) to glandular kallikrein, and PL kallikrein refers to plasma kallikrein.
as §1

[2] = target: T7, PL Kallikrein (plasma kallikrein) (Homo sapiens, UniProt P03952); assay: Protease inhibitory activity assay, plasma kallikrein; conditions: 1 μM inhibitor; PL kallikrein 3 nM; H-D-Pro-Phe-Arg-pNA 0.6 mM; 25° C.
T7 construct: purchased Kabi
T7 sequence (P03952 20-390 limits assumed): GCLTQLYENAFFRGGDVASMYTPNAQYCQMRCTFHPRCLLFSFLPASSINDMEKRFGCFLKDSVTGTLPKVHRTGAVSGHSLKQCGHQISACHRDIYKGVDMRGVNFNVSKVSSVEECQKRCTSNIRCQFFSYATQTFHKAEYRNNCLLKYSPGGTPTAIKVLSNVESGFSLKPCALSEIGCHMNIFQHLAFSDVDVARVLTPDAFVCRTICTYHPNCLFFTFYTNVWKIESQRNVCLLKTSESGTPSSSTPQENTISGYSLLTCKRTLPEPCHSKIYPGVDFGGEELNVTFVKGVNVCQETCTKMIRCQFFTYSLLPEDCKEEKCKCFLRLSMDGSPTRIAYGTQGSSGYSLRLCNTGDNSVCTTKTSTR
T7 sequence (P03952 391-638 limits assumed): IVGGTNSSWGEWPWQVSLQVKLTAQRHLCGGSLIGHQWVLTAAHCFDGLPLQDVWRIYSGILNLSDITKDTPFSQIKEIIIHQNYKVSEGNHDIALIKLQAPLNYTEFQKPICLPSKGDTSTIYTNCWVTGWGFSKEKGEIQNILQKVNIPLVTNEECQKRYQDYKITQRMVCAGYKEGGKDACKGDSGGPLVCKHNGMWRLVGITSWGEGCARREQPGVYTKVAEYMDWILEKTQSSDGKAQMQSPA
Protocol: as §3, §4, §5, §1

Leukocyte Elastase = target: T8, Leukocyte Elastase (Homo sapiens, UniProt P08246); assay: Protease inhibitory activity assay, leukocyte elastase; conditions: 1 μM inhibitor; MeO-Suc-Ala-Ala-Pro-Val-pNA 0.6 mM; 25° C.
T8 construct: purified at Novo Nordisk A/S; tissue Novo Nordisk A/S (purified there); host or cells: leukocytes
T8 sequence (P08246 30-267): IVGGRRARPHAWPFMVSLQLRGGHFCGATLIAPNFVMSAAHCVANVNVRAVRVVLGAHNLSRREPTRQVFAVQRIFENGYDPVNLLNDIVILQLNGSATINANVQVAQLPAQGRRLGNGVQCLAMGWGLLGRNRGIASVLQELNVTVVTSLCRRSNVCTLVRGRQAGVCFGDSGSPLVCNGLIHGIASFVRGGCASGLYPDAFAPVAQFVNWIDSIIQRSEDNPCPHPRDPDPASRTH
Protocol: MeO--Suc--Ala--Ala--Pro--Val--pNA
as §2, §1

Urokinase = target: T9, Urokinase (Homo sapiens, UniProt P00749); assay: Protease inhibitory activity assay, urokinase; conditions: 1 μM inhibitor; urokinase 5 nM; <Glu-Gly-Arg-pNA 0.6 mM; 25° C.
T9 construct: purchased Serono, Freigung, Germany
Protocol: as §1

[3] = target: T10, rec. Protein Ca (activated protein C) (Homo sapiens, UniProt P04070); assay: Protease inhibitory activity assay, activated protein C; conditions: 1 μM inhibitor; rec. Protein Ca 5 nM; <Glu-Pro-Arg-pNA 0.6 mM; 25° C.
T10 construct: purchased Novo Nordisk A/S
T10 sequence (P04070 43-197 limits assumed): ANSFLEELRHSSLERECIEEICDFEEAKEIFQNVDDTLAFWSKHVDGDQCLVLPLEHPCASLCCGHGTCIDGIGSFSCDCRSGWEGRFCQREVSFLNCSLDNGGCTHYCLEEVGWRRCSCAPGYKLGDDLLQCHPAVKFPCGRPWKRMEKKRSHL
T10 sequence (P04070 212-461 limits assumed): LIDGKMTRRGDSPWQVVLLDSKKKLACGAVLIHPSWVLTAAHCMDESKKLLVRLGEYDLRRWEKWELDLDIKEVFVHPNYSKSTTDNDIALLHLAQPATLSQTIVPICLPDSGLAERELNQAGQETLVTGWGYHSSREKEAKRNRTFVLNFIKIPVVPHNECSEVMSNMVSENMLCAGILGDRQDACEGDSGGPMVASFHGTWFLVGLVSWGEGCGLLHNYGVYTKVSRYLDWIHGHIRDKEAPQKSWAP
Protocol: as §1
r.h. refers to recombinant human, h. refers to human, protein Ca refers t
activated protein C; APPH refers to the KunitzType inhibitor domain of […]

% Inhibition, r.h. Factor VIIa (rec. human Factor VIIa): 15% | % Inhibition, Plasmin (Plasmin): 77% | % Inhibition, Cathepsin G (Cathepsin G): 0% | % Inhibition, h. Factor XIIa (human Factor XIIa): 6% | % Inhibition, h. Factor Xa (human Factor Xa): 0% | % Inhibition, h. Factor XIa (human Factor XIa): 99.8% | % Inhibition, PL Kallikrein [2]: 69% | % Inhibition, Leukocyte Elastase (Leukocyte Elastase): 4% | % Inhibition, Urokinase (Urokinase): 2% | % Inhibition, r.h. Protein Ca [3]: 0%
B1: APPH: Kunitz-type inhibitor domain of the human amyloid protein precursor homologue (SEQ ID NO:2 region 53/56/57-110), expressed in yeast (protein)
chain: GYIEALAANAGTGFAVAEPQIAMFCGKLNMHVNIQTGKWEPDPTGTKSCFETKEEVLQYCQEMYPELQITNVMEANQRVSIDNWCRRDKKQCKSRFVTPFKCLVGEFVSDVLLVPEKCQFFHKERMEVCENHQHWHTVVKEACLTQGMTLYSYGMLLPCGVDQFHGTEYVCCPQTKIIGSVSKEEEEEDEEEEEEEDEEEDYDVYKSEFPTEADLEDFTEAAVDEDDEDEEEGEEVVEDRDYYYDTFKGDDYNEENPTEPGSDGTMSDKEITHDVKAVCSQEAMTGPCRAVMPRWYFDLSKGKCVRFIYGGCGGNRNNFESEDYCMAVCKAMIPPTPLPTNDVDVYFETSADDNEHARFQKAKEQLEIRHRNRMDRVKKEWEEAELQAKNLPKAERQTLIQHFQAMVKALEKEAASEKQQLVETHLARVEAMLNDRRRMALENYLAALQSDPPRPHRILQALRRYVRAENKDRLHTIRHYQHVLAVDPEKAAQMKSQVMTHLHVIEERRNQILSLLYKVPYVAQEIQEEIDELLQEQRADMDQFTASISETPVDVRVSSEESEEIPPFHPFHPFPALPENEDTQPELYHPMKKGSGVGEQDGGLIGAEEKVINSKNKVDENMVIDETLDVKEMIFNAERVGGLEEERESVGPLREDFSLSS
% Inhibition, Chymotrypsin (Chymotrypsin): 61% | % Inhibition, Trypsin (Trypsin): 99.6% | % Inhibition, GI Kallikrein [1]: 97%
